According to article PMC2802489:

Tests used:
Assay in all cases: purified protein
[1] = test system: CC(C)C=O; details: 0.25 mM NADH, 50 mM MOPS pH 7.0, 37 °C, 100 nM enzyme
[2] = test system: CC=O; details: 0.25 mM NADH, 50 mM MOPS pH 7.0, 37 °C, 100 nM enzyme
[3] = substrate: CC(C)C=O; type: biochemical, Escherichia coli; details: 0.25 mM NADPH, 50 mM MOPS pH 7.0, 37 °C, 100 nM enzyme
[4] = substrate: CC=O; type: biochemical, Escherichia coli; details: 0.25 mM NADPH, 50 mM MOPS pH 7.0, 37 °C, 100 nM enzyme
[5] = substrate: CC=O; type: biochemical, Saccharomyces cerevisiae; details: 0.25 mM NADH, 50 mM MOPS pH 7.0, 37 °C, 100 nM enzyme

AdhA (Lactococcus lactis subsp. lactis Il1403)
Km [1]: 9100 ± 2900 µM
kcat [1]: 6.6 ± 0.2 s⁻¹
kcat/Km [1]: 800 M⁻¹ s⁻¹
Km [2]: 500 ± 200 µM
kcat [2]: 10 ± 0.3 s⁻¹
kcat/Km [2]: 20900 M⁻¹ s⁻¹

B1: YqhD (Escherichia coli K-12) (protein)
chain: NNFNLHTPTRILFGKGAIAGLREQIPHDARVLITYGGGSVKKTGVLDQVLDALKGMDVLEFGGIEPNPAYETLMNAVKLVREQKVTFLLAVGGGSVLDGTKFIAAAANYPENIDPWHILQTGGKEIKSAIPMGCVLTLPATGSESNAGAVISRKTTGDKQAFHSAHVQPVFAVLDPVYTYTLPPRQVANGVVDAFVHTVEQYVTKPVDAKIQDRFAEGILLTLIEDGPKALKEPENYDVRANVMWAATQALNGLIGAGVPQDWATHMLGHELTAMHGLDHAQTLAIVLPALWNEKRDTKRAKLLQYAERVWNITEGSDDERIDAAIAATRNFFEQLGVPTHLSDYGLDGSSIPALLKKLEEHGMTQLGENHDITLDVSRRIYEAAR
Km [3]: 1800 ± 1300 µM
kcat [3]: 1 ± 0.1 s⁻¹
Km [4]: 27600 ± 12400 µM
kcat [4]: 1.1 ± 0.1 s⁻¹
kcat/Km [4]: 50 M⁻¹ s⁻¹

B2: Adh2 (Saccharomyces cerevisiae S288C) (protein)
chain: SIPETQKAIIFYESNGKLEHKDIPVPKPKPNELLINVKYSGVCHTDLHAWHGDWPLPTKLPLVGGHEGAGVVVGMGENVKGWKIGDYAGIKWLNGSCMACEYCELGNESNCPHADLSGYTHDGSFQEYATADAVQAAHIPQGTDLAEVAPILCAGITVYKALKSANLRAGHWAAISGAAGGLGSLAVQYAKAMGYRVLGIDGGPGKEELFTSLGGEVFIDFTKEKDIVSAVVKATNGGAHGIINVSVSEAAIEASTRYCRANGTVVLVGLPAGAKCSSDVFNHVVKSISIVGSYVGNRADTREALDFFARGLVKSPIKVVGLSSLPEIYEKMEKGQIAGRYVVDTSK
Km [5]: 140 ± 20 µM
kcat [5]: 6.6 ± 0.5 s⁻¹
kcat/Km [5]: 46900 M⁻¹ s⁻¹
